Paper PMC3643934, “Identification and Characterization of the Direct Interaction between Methotrexate (MTX) and High-Mobility Group Box 1 (HMGB1) Protein” (PLoS ONE, 2013)

How the values were obtained:
Conditions in all cases: both partners purified
[1] = target: T1, extracellular domain of RAGE (M1-A344) (UniProt Q15109 23-344); assay: SPR; Biacore 3000; RAGE immobilised on a CM5 chip by amine coupling up to 5000 RU; Bj 0.31-10 µM injected at 30 µl/min, 120 s association and 120 s dissociation; PBS, 25°C; no MTX; kinetic analysis by global fitting
T1 construct: signal peptide in the construct; receptor for advanced glycation end products (RAGE), extracellular domain, M1-A344 as printed; The results call it 'chimeric RAGE' without saying what it is fused to; the R&D Systems product with these limits is probably the human RAGE Fc chimera (surmise), in which the signal peptide would be removed on secretion; also called chimeric RAGE; receptor for advanced …
T1 sequence (Q15109 23-344): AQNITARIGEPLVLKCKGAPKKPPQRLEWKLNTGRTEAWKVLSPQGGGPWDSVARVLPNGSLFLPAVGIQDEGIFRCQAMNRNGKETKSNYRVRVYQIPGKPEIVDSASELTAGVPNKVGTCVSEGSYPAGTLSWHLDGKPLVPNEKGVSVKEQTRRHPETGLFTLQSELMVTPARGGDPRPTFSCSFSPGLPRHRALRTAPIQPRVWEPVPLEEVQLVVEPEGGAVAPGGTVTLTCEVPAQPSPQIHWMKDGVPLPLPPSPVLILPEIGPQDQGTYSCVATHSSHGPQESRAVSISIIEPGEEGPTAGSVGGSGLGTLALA

[2] = target: T1, extracellular domain of RAGE (M1-A344); assay: SPR; same set-up, Bj 0.31-10 µM injected with 1 mM MTX; equilibrium responses (Req), Lineweaver-Burk plot, noncompetitive inhibition model
[3] = target: T1, extracellular domain of RAGE (M1-A344); assay: SPR; same set-up, no MTX; equilibrium responses (Req), concentration-response curve and Lineweaver-Burk plot

Kd [1]: 3.71 ± 1.68 µM
koff [1]: 0.00052 ± 0.25 s⁻¹
kon [1]: 150 ± 0.01 M⁻¹ s⁻¹
Kd [2]: 1.39 µM
Kd [3]: 1.35 µM
B1: Bj protein (amino acid residues F88-K181 of HMGB1) (domain or fragment)
chain: FKDPNAPKRPPSAFFLFCSEYRPKIKGEHPGLSIGDVAKKLGEMWNNTAADDKQPYEKKAAKLKEKYEKDIAAYRAKGKPDAAKKGVVKAEKSK
modifications: Paper numbering starts at G1 (initiator Met removed), so entry number = paper number + 1 (F88-K181 -> 89-182; D157 -> D158; Y161 -> Y162). N-terminal 6xHis tag from pTrcHis omitted; expressed in E. …
